Data taken from IntAct's records for PubMed 17159145.

B1: Epstein-Barr nuclear antigen leader protein (Epstein-Barr virus (strain B95-8) (HHV-4)), Q8AZK7 (parent)
chain: MGDRSEGPGPTRPGPPGIGPEGPLGQLLRRHRSPSPTRGGQEPRRVRRRVLVQQEEEVVSGSPSGPRGDRSEGPGPTRPGPPGIGPEGPLGQLLRRHRSPSPTRGGQEPRRVRRRVLVQQEEEVVSGSPSGPRGDRSEGPGPTRPGPPGIGPEGPLGQLLRRHRSPSPTRGGQEPRRVRRRVLVQQEEEVVSGSPSGPRGDRSEGPGPTRPGPPGIGPEGPLGQLLRRHRSPSPTRGGQEPRRVRRRVLVQQEEEVVSGSPSGPRGDRSEGPGPTRPGPPGIGPEGPLGQLLRRHRSPSPTRGGQEPRRVRRRVLVQQEEEVVSGSPSGPRGDRSEGPGPTRPGPPGIGPEGPLGQLLRRHRSPSPTRGGQEPRRVRRRVLVQQEEEVVSGSPSGPRGDRSEGPGPTRPGPPGIGPEGPLGQLLRRHRSPSPTRGGQEPRRVRRRVLVQQEEEVVSGSPSGPLRPRPRPPARSLREWLLRIRDHFEPPTVTTQRQSVYIEEEEDED

Variants of: B1
Details: with hdac4_human HDAC4, P56524
Chain of hdac4_human HDAC4, P56524 (P56524 whole entry): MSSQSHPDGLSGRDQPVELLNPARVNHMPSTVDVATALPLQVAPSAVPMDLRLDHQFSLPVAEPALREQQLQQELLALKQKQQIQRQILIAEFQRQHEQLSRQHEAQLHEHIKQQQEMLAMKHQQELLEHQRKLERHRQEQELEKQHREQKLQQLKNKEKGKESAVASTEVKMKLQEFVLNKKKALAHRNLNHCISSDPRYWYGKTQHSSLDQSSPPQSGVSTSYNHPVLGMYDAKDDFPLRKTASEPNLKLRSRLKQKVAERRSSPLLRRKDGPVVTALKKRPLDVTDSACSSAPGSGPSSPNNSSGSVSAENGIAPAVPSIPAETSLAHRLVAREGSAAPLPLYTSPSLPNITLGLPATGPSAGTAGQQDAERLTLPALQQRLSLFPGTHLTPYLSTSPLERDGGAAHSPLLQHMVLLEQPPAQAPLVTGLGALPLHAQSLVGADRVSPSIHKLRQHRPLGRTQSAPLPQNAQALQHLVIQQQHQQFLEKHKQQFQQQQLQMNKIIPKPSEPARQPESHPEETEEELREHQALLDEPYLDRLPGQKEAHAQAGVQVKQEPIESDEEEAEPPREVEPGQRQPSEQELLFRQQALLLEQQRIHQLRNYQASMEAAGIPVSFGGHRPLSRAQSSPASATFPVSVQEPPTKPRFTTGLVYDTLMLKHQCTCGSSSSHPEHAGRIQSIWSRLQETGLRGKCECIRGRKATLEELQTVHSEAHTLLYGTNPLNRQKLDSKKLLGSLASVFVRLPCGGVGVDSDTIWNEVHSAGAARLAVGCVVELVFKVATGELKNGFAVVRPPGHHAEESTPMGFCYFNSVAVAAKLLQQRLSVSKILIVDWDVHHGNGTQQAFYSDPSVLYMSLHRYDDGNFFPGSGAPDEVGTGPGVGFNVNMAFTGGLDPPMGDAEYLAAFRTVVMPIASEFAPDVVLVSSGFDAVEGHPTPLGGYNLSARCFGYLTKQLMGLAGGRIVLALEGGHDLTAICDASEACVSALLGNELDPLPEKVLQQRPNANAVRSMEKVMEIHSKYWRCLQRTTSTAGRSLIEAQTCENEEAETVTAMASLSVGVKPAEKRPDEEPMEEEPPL

Variant	effect of a mutation on the interaction
MGDRSEGPGPTRPGPPGIGPEGPLGQLLRRHRAPAPTRGGQEPRRVRRRVLVQQEEEVVSGAPSGPRGDRSEGPGPTRPGPPGIGPEGPLGQLLRRHRSPSPTRGGQEPRRVRRRVLVQQEEEVVSGSPSGPRGDRSEGPGPTRPGPPGIGPEGPLGQLLRRHRSPSPTRGGQEPRRVRRRVLVQQEEEVVSGSPSGPRGDRSEGPGPTRPGPPGIGPEGPLGQLLRRHRSPSPTRGGQEPRRVRRRVLVQQEEEVVSGSPSGPRGDRSEGPGPTRPGPPGIGPEGPLGQLLRRHRSPSPTRGGQEPRRVRRRVLVQQEEEVVSGSPSGPRGDRSEGPGPTRPGPPGIGPEGPLGQLLRRHRSPSPTRGGQEPRRVRRRVLVQQEEEVVSGSPSGPRGDRSEGPGPTRPGPPGIGPEGPLGQLLRRHRSPSPTRGGQEPRRVRRRVLVQQEEEVVSGSPSGPLRPRPRPPARSLREWLLRIRDHFEPPTVTTQRQSVYIEEEEDED [S33A;S35A;S62A]	decreasing interaction strength
